Here are results for 1 protein from paper PMC9499477, “The Inflammasome Activity of NLRP3 Is Independent of NEK7 in HEK293 Cells Co-Expressing ASC” (International Journal of Molecular Sciences, 2022).

The data set deals with the molecule itself. Put plainly: SEC + other: dynamic light scattering; analytical SEC: 100 µL of 1 mg/mL FLAG-tagged NLRP3ΔPYD on Superose 6 Increase 10/300, 20 mM HEPES pH 7.5, 200 mM NaCl, 1 mM MgCl2, 2 mM DTT, size by calibration standards; DLS at 10 °C in the same buffer; self-association.

For orientation: stoichiometry N means the number of molecules, sites or subunits per partner or assembly.

B1: NLRP3ΔPYD carrying the double mutation F788E/F813E (NLRP3ΔPYD-F788E/F813E), FLAG-tagged (domain or fragment, human, UniProt Q96P20 126-1036, looked up)
chain: RISICKMKKDYRKKYRKYVRSRFQCIEDRNARLGESVSLNKRYTRLRLIKEHRSQQEREQELLAIGKTKTCESPVSPIKMELLFDPDDEHSEPVHTVVFQGAAGIGKTILARKMMLDWASGTLYQDRFDYLFYIHCREVSLVTQRSLGDLIMSCCPDPNPPIHKIVRKPSRILFLMDGFDELQGAFDEHIGPLCTDWQKAERGDILLSSLIRKKLLPEASLLITTRPVALEKLQHLLDHPRHVEILGFSEAKRKEYFFKYFSDEAQARAAFSLIQENEVLFTMCFIPLVCWIVCTGLKQQMESGKSLAQTSKTTTAVYVFFLSSLLQPRGGSQEHGLCAHLWGLCSLAADGIWNQKILFEESDLRNHGLQKADVSAFLRMNLFQKEVDCEKFYSFIHMTFQEFFAAMYYLLEEEKEGRTNVPGSRLKLPSRDVTVLLENYGKFEKGYLIFVVRFLFGLVNQERTSYLEKKLSCKISQQIRLELLKWIEVKAKAKKLQIQPSQLELFYCLYEMQEEDFVQRAMDYFPKIEINLSTRMDHMVSSFCIENCHRVESLSLGFLHNMPKEEEEEEKEGRHLDMVQCVLPSSSHAACSHGLVNSHLTSSFCRGLFSVLSTSQSLTELDLSDNSLGDPGMRVLCETLQHPGCNIRRLWLGRCGLSHECCEDISLVLSSNQKLVELDLSDNALGDEGIRLLCVGLKHLLCNLKKLWLVSCCLTSACCQDLASVLSTSHSLTRLYVGENALGDSGVAILCEKAKNPQCNLQKLGLVNSGLTSVCCSALSSVLSTNQNLTHLYLRGNTLGDKGIKLLCEGLLHPDCKLQVLELDNCNLTSHCCWDLSTLLTSSQSLRKLSLGNNDLGDLGVMMFCEVLKQQSCLLQNLGLSEMYFNYETKSALETLQEEKPELTVVFEPSW
notes: NLRP3, human, N-terminally truncated, amino acids 126-1036 (lacks the pyrin domain), with F788E and F813E; Made by megaprimer mutagenesis of the NLRP3ΔPYD construct; also called the mutant
For the protein B1, the “stoichiometry N” value is approximately 3.
